Assay results from patent US20140308287A1 (SEA LANE BIOTECHNOLOGIES, published 2014).

Molecular target: T1, human ErbB3-Fc (R&D Systems) (human, UniProt P21860 20-643)
T1 construct: Bought protein; also called wild-type ErbB3-Fc fusion; immobilized ErbB3; not shown: Fc part of the bought fusion protein; not described
Experiment: ELISA on ErbB3-Fc, soluble monovalent Sab (Example 42)

EC50 [pM] | Binder
71 | 2995-A01 (other) VH: EVQLLESGGGLVQPGGSLRLSCAASGFTFSSYWMHWVRQAPGKGLEWVAAISSSGTYTYYADSVKGRFTISRDNSKNTLYLQMNSLRAEDTAVYYCAKDNFILLNSWFDYWGQGTLVTVSS light: QPVLHQPPAMSSALGTTIRLTCTLRNDHDIGVYSVYWYQQRPGHPPRFLLRYFSQSDKSQGPQVPPRFSGSKDVARNRGYLSISELQPEDEAMYYCAMGARSSVTHVFGSGTQLTVLSQPKATPSVTLFPPSSEELQANKATLVCLMNDFYPGILTVTWKADGTPITQGVEMTTPSKQSNNKYAASSYLSLTPEQWRSRRSYSCQVMHEGSTVEKTVAPAECS
22 | 2995-A07 (other) VH: EVQLLESGGGLVQPGGSLRLSCAASGFTFSSYWMHWVRQAPGKGLEWVAGISSGGAYTYYADSVKGRFTISRDNSKNTLYLQMNSLRAEDTAVYYCAKDNFILLNSWFDYWGQGTLVTVSS light: QPVLHQPPAMSSALGTTIRLTCTLRNDHDIGVYSVYWYQQRPGHPPRFLLRYFSQSDKSQGPQVPPRFSGSKDVARNRGYLSISELQPEDEAMYYCAMGARSSVTHVFGSGTQLTVLSQPKATPSVTLFPPSSEELQANKATLVCLMNDFYPGILTVTWKADGTPITQGVEMTTPSKQSNNKYAASSYLSLTPEQWRSRRSYSCQVMHEGSTVEKTVAPAECS
45 | 2995-A09 (other) VH: EVQLLESGGGLVQPGGSLRLSCAASGFTFSSYWMHWVRQAPGKGLEWVAGISYGGTYTYYADSVKGRFTISRDNSKNTLYLQMNSLRAEDTAVYYCAKDNFILLNSWFDYWGQGTLVTVSS light: QPVLHQPPAMSSALGTTIRLTCTLRNDHDIGVYSVYWYQQRPGHPPRFLLRYFSQSDKSQGPQVPPRFSGSKDVARNRGYLSISELQPEDEAMYYCAMGARSSVTHVFGSGTQLTVLSQPKATPSVTLFPPSSEELQANKATLVCLMNDFYPGILTVTWKADGTPITQGVEMTTPSKQSNNKYAASSYLSLTPEQWRSRRSYSCQVMHEGSTVEKTVAPAECS
10 | 2995-A12 (other) VH: EVQLLESGGGLVQPGGSLRLSCAASGFTFSDYWMNWVRQAPGKGLEWVANISGGGGYIYYADSVKGRFTISRDNSKNTLYLQMNSLRAEDTAVYYCAKDNFILLNSWFDYWGQGTLVTVSS surrogate light: QPVLHQPPAMSSALGTTIRLTCTLRNDHDIGVYSVYWYQQRPGHPPRFLLRYFSQSDKSQGPQVPPRFSGSKDVARNRGYLSISELQPEDEAMYYCAMGARSSVTHVFGSGTQLTVLSQPKATPSVTLFPPSSEELQANKATLVCLMNDFYPGILTVTWKADGTPITQGVEMTTPSKQSNNKYAASSYLSLTPEQWRSRRSYSCQVMHEGSTVEKTVAPAECS
20 | 2995-A08 (other) VH: EVQLLESGGGLVQPGGSLRLSCAASGFTFSSYWMHWVRQAPGKGLEWVAGISNGGSIIYYADSVKGRFTISRDNSKNTLYLQMNSLRAEDTAVYYCAKDNFILLNSWFDYWGQGTLVTVSS light: QPVLHQPPAMSSALGTTIRLTCTLRNDHDIGVYSVYWYQQRPGHPPRFLLRYFSQSDKSQGPQVPPRFSGSKDVARNRGYLSISELQPEDEAMYYCAMGARSSVTHVFGSGTQLTVLSQPKATPSVTLFPPSSEELQANKATLVCLMNDFYPGILTVTWKADGTPITQGVEMTTPSKQSNNKYAASSYLSLTPEQWRSRRSYSCQVMHEGSTVEKTVAPAECS
46 | 2995-B01 (other) VH: EVQLLESGGGLVQPGGSLRLSCAASGFTFSDYAMHWVRQAPGKGLEWVALISSGGRYKYYADSVKGRFTISRDNSKNTLYLQMNSLRAEDTAVYYCAKDNFILLNSWFDYWGQGTLVTVSS light: QPVLHQPPAMSSALGTTIRLTCTLRNDHDIGVYSVYWYQQRPGHPPRFLLRYFSQSDKSQGPQVPPRFSGSKDVARNRGYLSISELQPEDEAMYYCAMGARSSVTHVFGSGTQLTVLSQPKATPSVTLFPPSSEELQANKATLVCLMNDFYPGILTVTWKADGTPITQGVEMTTPSKQSNNKYAASSYLSLTPEQWRSRRSYSCQVMHEGSTVEKTVAPAECS
16 | 2995-B02 (other, copies: 1 + 1) VH: EVQLLESGGGLVQPGGSLRLSCAASGFTFSDYWMHWVRQAPGKGLEWVAVISSNGRYTYYADSVKGRFTISRDNSKNTLYLQMNSLRAEDTAVYYCAKDNFILLNSWFDYWGQGTLVTVSS light: QPVLHQPPAMSSALGTTIRLTCTLRNDHDIGVYSVYWYQQRPGHPPRFLLRYFSQSDKSQGPQVPPRFSGSKDVARNRGYLSISELQPEDEAMYYCAMGARSSVTHVFGSGTQLTVLSQPKATPSVTLFPPSSEELQANKATLVCLMNDFYPGILTVTWKADGTPITQGVEMTTPSKQSNNKYAASSYLSLTPEQWRSRRSYSCQVMHEGSTVEKTVAPAECS
21 | 2995-B04 (other) VH: EVQLLESGGGLVQPGGSLRLSCAASGFTFSNYWMHWVRQAPGKGLEWVALISNNGTYTYYADSVKGRFTISRDNSKNTLYLQMNSLRAEDTAVYYCAKDNFILLNSWFDYWGQGTLVTVSS light: QPVLHQPPAMSSALGTTIRLTCTLRNDHDIGVYSVYWYQQRPGHPPRFLLRYFSQSDKSQGPQVPPRFSGSKDVARNRGYLSISELQPEDEAMYYCAMGARSSVTHVFGSGTQLTVLSQPKATPSVTLFPPSSEELQANKATLVCLMNDFYPGILTVTWKADGTPITQGVEMTTPSKQSNNKYAASSYLSLTPEQWRSRRSYSCQVMHEGSTVEKTVAPAECS
32 | 2995-A06 (other, copies: 1 + 1) VH: EVQLLESGGGLVQPGGSLRLSCAASGFTFSSYWMHWVRQAPGKGLEWVAGISDGGAYTYYADSVKGRFTISRDNSKNTLYLQMNSLRAEDTAVYYCAKDNFILLNSWFDYWGQGTLVTVSS surrogate light: QPVLHQPPAMSSALGTTIRLTCTLRNDHDIGVYSVYWYQQRPGHPPRFLLRYFSQSDKSQGPQVPPRFSGSKDVARNRGYLSISELQPEDEAMYYCAMGARSSVTHVFGSGTQLTVLSQPKATPSVTLFPPSSEELQANKATLVCLMNDFYPGILTVTWKADGTPITQGVEMTTPSKQSNNKYAASSYLSLTPEQWRSRRSYSCQVMHEGSTVEKTVAPAECS
18 | 2995-A02 (other, copies: 1 + 1) VH: EVQLLESGGGLVQPGGSLRLSCAASGFTFSSYWMNWVRQAPGKGLEWVALISNGGGIKYYADSVKGRFTISRDNSKNTLYLQMNSLRAEDTAVYYCAKDNFILLNSWFDYWGQGTLVTVSS light: QPVLHQPPAMSSALGTTIRLTCTLRNDHDIGVYSVYWYQQRPGHPPRFLLRYFSQSDKSQGPQVPPRFSGSKDVARNRGYLSISELQPEDEAMYYCAMGARSSVTHVFGSGTQLTVLSQPKATPSVTLFPPSSEELQANKATLVCLMNDFYPGILTVTWKADGTPITQGVEMTTPSKQSNNKYAASSYLSLTPEQWRSRRSYSCQVMHEGSTVEKTVAPAECS
22 | 2995-A05 (other) VH: EVQLLESGGGLVQPGGSLRLSCAASGFTFSNYWMHWVRQAPGKGLEWVAAISNGSSYTYYADSVKGRFTISRDNSKNTLYLQMNSLRAEDTAVYYCAKDNFILLNSWFDYWGQGTLVTVSS light: QPVLHQPPAMSSALGTTIRLTCTLRNDHDIGVYSVYWYQQRPGHPPRFLLRYFSQSDKSQGPQVPPRFSGSKDVARNRGYLSISELQPEDEAMYYCAMGARSSVTHVFGSGTQLTVLSQPKATPSVTLFPPSSEELQANKATLVCLMNDFYPGILTVTWKADGTPITQGVEMTTPSKQSNNKYAASSYLSLTPEQWRSRRSYSCQVMHEGSTVEKTVAPAECS
